Kd data for three molecules are collected here from publication PMC10165274 (The Journal of Biological Chemistry, 2023).

Experiment in all cases: ITC; peptide (FEN1 800 uM, pol δ p66 550 uM, RNaseH2B 750 uM) with 33 to 38 uM individual PCNA (not trimeric rings); 25 °C
Holding throughout (details): both partners purified

Test [1] concerns the target T1, Proliferating cell nuclear antigen, wild type (human, UniProt P12004 1-261).
T1 construct: PCNA, human; untagged, expressed from the pET3c vector; Homotrimeric ring; also called PCNA-WT; PCNA; source: E. coli BLR-DE3, purified (S and Q HiTrap columns, Sephacryl-200 gel filtration)

In test [2] the target is T2, Proliferating cell nuclear antigen C148S variant (human, UniProt P12004 1-261, C148S).
T2 construct: PCNA, human, patient-derived variant p.Cys148Ser; untagged, made by site-directed mutagenesis of PCNA-WT in pET3c; Disease-associated natural allele (PARD); Homotrimeric ring; also called PCNA-C148S; C148S-PCNA; source: E. coli BLR-DE3, purified (S and Q HiTrap columns, Sephacryl-200 gel filtration)
T2 sequence (P12004 whole entry C148S): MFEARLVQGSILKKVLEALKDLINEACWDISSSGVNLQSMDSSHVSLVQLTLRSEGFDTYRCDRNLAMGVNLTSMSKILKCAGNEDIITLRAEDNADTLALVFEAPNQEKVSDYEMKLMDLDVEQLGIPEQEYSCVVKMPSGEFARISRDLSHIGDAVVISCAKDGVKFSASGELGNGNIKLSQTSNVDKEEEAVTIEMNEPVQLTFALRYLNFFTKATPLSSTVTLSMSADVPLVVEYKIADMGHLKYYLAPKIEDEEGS

Test [3] deals with T3, Proliferating cell nuclear antigen S228I variant (human, UniProt P12004 1-261, S228I).
T3 construct: PCNA, human, patient-derived variant p.Ser228Ile; expressed from the pET3c vector; Disease-associated natural allele (PARD); also called PCNA-S228I; source: E. coli BLR-DE3, purified (S and Q HiTrap columns, Sephacryl-200 gel filtration)
T3 sequence (P12004 whole entry S228I): as the sequence (P12004 whole entry C148S) above, with S148C, S228I counted along it

T1 sequence (P12004 whole entry): as the sequence (P12004 whole entry C148S) above, with S148C counted along it

B1: RNaseH2B PIP-box peptide (peptide)
peptide: DKSGMKSIDTFFGVKNKKKIGKV
notes: PIP-box peptide of RNaseH2B; free C-terminus (-OH); printed with a blank after SID; source: synthetic peptide (21st Century Biochemicals)
Turning to B1, the Kd turned out to be 9.7 ± 0.3 µM in test [1] and 7.8 ± 0.01 µM in test [2].

B2: FEN1 PIP-box peptide (peptide)
peptide: STQGRLDDFFKVTGSL
notes: PIP-box peptide of Flap endonuclease 1 (FEN1); free C-terminus (-OH); source: synthetic peptide (21st Century Biochemicals)
Regarding B2, the Kd in test [1] and in test [2] was 11 ± 2 µM in each case.

B3: DNA polymerase delta p66 PIP-box peptide (peptide)
peptide: KANRQVSITGFFQRK
notes: PIP-box peptide of the p66 subunit of DNA polymerase delta; also called pol δ p66; pol δ; source: synthetic peptide (21st Century Biochemicals)
Turning to B3, the Kd came out at 4 ± 0.14 µM in test [3], 3 ± 0.16 µM in test [1] and 2.8 ± 0.33 µM in test [2].
